# Patent US20090304715A1 (TOKYO UNIVERSITY OF SCIENCE, published 2009)
# T1: recombinant FcγRIIB extracellular domain-Gly-His6-GST (human, UniProt P31994 43-217)
# T1 construct: extracellular domain; Expressed in 293T cells, purified on Ni-NTA; also called FcγRIIB/Gly-His6-GST; not shown: GST amplified from pGEX-2TK
# T1 sequence: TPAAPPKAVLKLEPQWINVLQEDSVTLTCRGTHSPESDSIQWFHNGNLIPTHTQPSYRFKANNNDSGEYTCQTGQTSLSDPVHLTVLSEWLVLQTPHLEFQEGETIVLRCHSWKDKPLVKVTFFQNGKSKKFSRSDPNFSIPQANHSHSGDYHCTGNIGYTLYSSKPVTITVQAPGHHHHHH
# T2: CD20 on CD20-positive human Burkitt's lymphoma Ramos cells (human, UniProt P11836 1-297)
# T2 construct: whole, on cells; also called B cell-specific differentiation antigen CD20
# T2 sequence (looked up): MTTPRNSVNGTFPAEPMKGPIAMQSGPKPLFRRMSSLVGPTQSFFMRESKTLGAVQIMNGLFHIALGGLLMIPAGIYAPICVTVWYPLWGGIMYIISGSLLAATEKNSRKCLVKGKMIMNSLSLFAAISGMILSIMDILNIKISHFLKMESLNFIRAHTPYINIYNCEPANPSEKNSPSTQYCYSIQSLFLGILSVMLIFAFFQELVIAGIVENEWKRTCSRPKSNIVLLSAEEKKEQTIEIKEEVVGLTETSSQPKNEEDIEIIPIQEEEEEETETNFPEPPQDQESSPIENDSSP
# T3: recombinant FcγRIIA extracellular domain-Gly-His6-GST (human, UniProt P12318 34-217)
# T3 construct: extracellular domain; Expressed in 293T cells, purified on Ni-NTA; also called FcγRIIA/Gly-His6-GST; not shown: GST amplified from pGEX-2TK
# T3 sequence: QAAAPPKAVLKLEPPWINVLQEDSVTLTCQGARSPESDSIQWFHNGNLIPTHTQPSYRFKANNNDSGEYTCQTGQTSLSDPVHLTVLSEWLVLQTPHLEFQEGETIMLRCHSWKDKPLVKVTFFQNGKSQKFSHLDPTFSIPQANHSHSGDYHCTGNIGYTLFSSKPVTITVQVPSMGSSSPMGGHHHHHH
# B1: mouse/human chimeric anti-CD20 antibody, Fc monomer (M) (antibody)
# heavy: not shown
# light: QIVLSQSPAILSASPGEKVTMTCRASSSLSFMHWYQQKPGSSPKPWIYATSNLASGVPARFSGSGSGTSYSLTISRVEAEDAATYFCHQWSSNPLTFGAGTKLLETVAAPSVFIFPPSDEQLKSGTASVVCLLNNFYPREAKVQWKVDNALQSGNSQESVTEQDSKDSTYSLSSTLTLSKADYEKHKVYACEVTHQGLSSPVTKSFNRGEC
# notes: Variable regions of mouse 1F5, human IgG1/kappa constant regions; Produced in CHO DG44; also called Anti-CD20 HC Fc Monomer
# B2: modified anti-CD20 antibody, Fc trimer with three G4S spacers (T3) (antibody)
# heavy: not shown
# light: B1 light
# B3: modified anti-CD20 antibody, Fc trimer with two G4S spacers (T2) (antibody)
# heavy: not shown
# light: B1 light
# B4: modified anti-CD20 antibody, Fc trimer with one G4S spacer (T1) (antibody)
# heavy: not shown
# light: B1 light
# B5: modified anti-CD20 antibody, Fc dimer with three G4S spacers (D3) (antibody)
# heavy: not shown
# light: B1 light
# B6: modified anti-CD20 antibody, Fc dimer with no spacer (D0) (antibody)
# heavy: not shown
# light: B1 light
# B7: modified anti-CD20 antibody, Fc dimer with one G4S spacer (D1) (antibody)
# heavy: not shown
# light: B1 light
# B8: modified anti-CD20 antibody, Fc dimer with two G4S spacers (D2) (antibody)
# heavy: not shown
# light: B1 light
# B9: modified anti-CD20 antibody, Fc trimer with no spacer (T0) (antibody)
# heavy: not shown
# light: B1 light
# Biological target: T1, recombinant FcγRIIB extracellular …
# Assay: ELISA, plate-coated recombinant FcγRIIB; Ab50 = antibody concentration at 50% of maximal binding
# Experimental: (§1) The prepared FcγR (FcγRIA, FcγRIIA, FcγRIIB, FcγRIIIA^Val, and FcγRIIIA^Phe) were adjusted to 4 μg/ml with PBS, aliquoted into 96-well plates at 50 μl per well, and allowed to stand at 4° C. overnight. Then the solutions were discarded and 180 μl of ELISA Assay buffer (0.5% BSA, 2 mM EDTA, 0.05% Tween20, 25 mM TBS (pH 7.4)) was added to each well. The plates were allowed to stand and blocked at 37° C. for 2 hours. The solutions were discarded, 50 μl of antibody solutions serially diluted with ELISA Assay buffer were added to each well and allowed to react at 37° C. for two hours. The antibody solutions were discarded and wells were washed three times with 150 μl of ELISA Assay buffer. 50 μl of ELISA Assay buffer containing 0.33 μg/ml HRP-labeled goat anti-human Kappa chain antibody was aliquoted into each well and allowed to stand at 37° C. for one hour. After the antibody solution was removed, wells were washed three times with 150 μl of ELISA Assay buffer. 50 μl of a substrate solution (sodium citrate buffer (pH 5.0) containing 0.4% o-phenylenediamine dihydrochloride and 0.003% H₂O₂) was aliquoted and allowed to stand at room temperature in the dark for ten minutes. Then measurements at A450 were carried out using a microplate reader (FIG. 9).
row,EC50,Binder
1,~50 nM,B1
2,~0.5 nM,B2
3,~0.5 nM,B3
4,~0.5 nM,B4
5,~5 nM,B5

# Biological target: T4, recombinant FcγRIIIA (Val^158 type) extracellular domain-Gly-His6-GST (human, UniProt P08637 17-208)
# T4 construct: extracellular domain; Valine at position 158 (printed once as 157V); The database entry may carry Phe at this position; also called type-V FcγRIIIA; FcγRIIIA(157V); not shown: GST amplified from pGEX-2TK
# Assay: ELISA, plate-coated recombinant FcγRIIIA (Val158); Ab50 = antibody concentration at 50% of maximal binding
# Experimental: as §1
# T4 sequence (P08637 other isoform, or with tags, fused parts or gaps): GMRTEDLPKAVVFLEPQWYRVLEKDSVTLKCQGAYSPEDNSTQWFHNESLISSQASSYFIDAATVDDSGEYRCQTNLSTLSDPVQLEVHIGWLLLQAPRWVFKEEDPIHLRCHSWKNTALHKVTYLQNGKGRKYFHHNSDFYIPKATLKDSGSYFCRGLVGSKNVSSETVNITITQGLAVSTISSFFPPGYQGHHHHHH
row,EC50,Binder
1,~30 nM,B1
2,~0.5 nM,B2
3,~2 nM,B6
4,~0.5 nM,B3
5,~0.5 nM,B4
6,~2 nM,B5
7,~30 nM,B7
8,~30 nM,B8
9,~2 nM,B9

# Biological target: T2, CD20 on CD20-positive human Burkitt's …
# Assay: flow cytometry on CD20-positive Ramos cells, antibody 50 nM, FITC anti-human kappa
# Experimental: CD20-positive human Burkitt's lymphoma Ramos cells were cultured using RPMI1640 containing 10% heat-inactivated fetal bovine serum, 1 mM sodium pyruvate (Wako), 100 U/ml penicillin, and 100 μg/ml streptomycin at 37° C. under 5% CO₂. The Ramos cell culture solution was centrifuged at 600 g for five minutes. After the medium was removed, the cells were suspended in an appropriate volume of medium. After another centrifugation at 600 g for five minutes, the medium was removed. 5 ml of FACS buffer (PBS containing 0.1% BSA and 0.02% NaN₃) was added to suspend the cells, and this was left on ice and blocked for 30 minutes. The supernatant was removed after centrifugation at 600 g for five minutes, cells were suspended at 5×10⁶ cells/ml in FACS buffer, and 100 μl were aliquoted per 1.5-ml tube. […] The supernatants were removed, and cells were washed by adding 500 μl of FACS buffer. This process was repeated twice to completely remove the non-reacted antibodies. Cells were suspended in 100 μl of FACS buffer containing 20 μg/ml FITC-labeled goat anti-human Kappa chain antibody (Biosource International), and allowed to stand on ice in the dark for 30 minutes. Cells were washed with the method described above, suspended in 100 μl of FACS buffer, filtered through a mesh with a hole size of 59 μm, and transferred into FACS tubes. The CD20 binding activity of each antibody was analyzed by fluorescence measurement using FACScan (Becton Dickinson) (FIG. 8).
row,binding result,Binder
1,binds,B1
2,binds,B6
3,binds,B5
4,binds,B9

# Biological target: T5, recombinant FcγRIA extracellular domain-Gly-His6-GST (human, UniProt P12314 16-292)
# T5 construct: extracellular domain; Residues from the XbaI junction between receptor and tag are not spelled out; also called FcγRIA/Gly-His6-GST; not shown: GST amplified from pGEX-2TK
# Assay: ELISA, plate-coated recombinant FcγRIA extracellular domain-Gly-His6-GST, HRP anti-human kappa
# Experimental: as §1
# T5 sequence (P12314 other isoform, or with tags, fused parts or gaps): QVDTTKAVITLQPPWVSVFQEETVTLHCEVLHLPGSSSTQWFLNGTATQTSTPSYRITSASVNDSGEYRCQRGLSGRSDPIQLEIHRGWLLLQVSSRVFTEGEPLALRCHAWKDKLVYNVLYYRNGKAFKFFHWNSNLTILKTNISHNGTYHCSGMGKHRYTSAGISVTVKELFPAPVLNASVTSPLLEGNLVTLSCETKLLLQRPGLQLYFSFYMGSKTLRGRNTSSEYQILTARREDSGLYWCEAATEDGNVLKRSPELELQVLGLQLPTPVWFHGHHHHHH
row,binding result,Binder
1,binds,B1
2,binds,B6
3,binds,B5
4,binds,B9

# Biological target: T3, recombinant FcγRIIA extracellular …
# Assay: ELISA, plate-coated recombinant FcγRIIA; Ab50 = antibody concentration at 50% of maximal binding; reference M
# Experimental: as §1
row,fold difference of Ab50 against M,Binder
1,~100 times,B2
2,~100 times,B3
3,~100 times,B4
4,~60 times,B5
5,~100 times,B9
